This series deals with Cys109 (UniProt position 128, ADAGFCYPPET). Put plainly: NMR. The conditions noted are these: 25 °C (general NMR condition 'unless stated otherwise'; not stated specifically for the pH series); reduced nDsbD (C103 and C109 as thiols), isolated domain, folded, cap loop closed.

Take “Thiol:disulfide interchange protein DsbD, N-terminal domain (nDsbD) (Escherichia coli)”: the pKa entry is listed as “above 11”.

The record behind these values is publication PMC7347389.
